First the molecules themselves.
B1: hexon of Ad5.6 (Ad5 vector, hexon HVR7 VIRTDTL), on the virion (natural protein, human adenovirus type 5)
chain: ATPSMMPQWSYMHISGQDASEYLSPGLVQFARATETYFSLNNKFRNPTVAPTHDVTTDRSQRLTLRFIPVDREDTAYSYKARFTLAVGDNRVLDMASTYFDIRGVLDRGPTFKPYSGTAYNALAPKGAPNPCEWDEAATALEINLEEEDDDNEDEVDEQAEQQKTHVFGQAPYSGINITKEGIQIGVEGQTPKYADKTFQPEPQIGESQWYETEINHAAGRVLKKTTPMKPCYGSYAKPTNENGGQGILVKQQNGKLESQVEMQFFSTTEATAGNGDNLTPKVVLYSEDVDIETPDTHISYMPTIKEGNSRELMGQQSMPNRPNYIAFRDNFIGLMYYNSTGNMGVLAGQASQLNAVVDLQDRNTELSYQLLLDSIGDRTRYFSMWNQAVDSYDPDVRIIENHGTEDELPNYCFPLGGVIRTDTLTKVKPKTGQENGWEKDATEFSDKNEIRVGNNFAMEINLNANLWRNFLYSNIALYLPDKLKYSPSNVKISDNPNTYDYMNKRVVAPGLVDCYINLGARWSLDYMDNVNPFNHHRNAGLRYRSMLLGNGRYVPFHIQVPQKFFAIKNLLLLPGSYTYEWNFRKDVNMVLQSSLGNDLRVDGASIKFDSICLYATFFPMAHNTASTLEAMLRNDTNDQSFNDYLSAANMLYPIPANATNVPISIPSRNWAAFRGWAFTRLKTKETPSLGSGYDPYYTYSGSIPYLDGTFYLNHTFKKVAITFDSSVSWPGNDRLLTPNEFEIKRSVDGEGYNVAQCNMTKDWFLVQMLANYNIGYQGFYIPESYKDRMYSFFRNFQPMSRQVVDDTKYKDYQQVGILHQHNNSGFVGYLAPTMREGQAYPANFPYPLIGKTAVDSITQKKFLCDRTLWRIPFSSNFMSMGALTDLGQNLLYANSAHALDMTFEVDPMDEPTLLYVLFEVFDVVRVHRPHRGVIETVYLRTPFSAGNATT
notes: hexon of human adenovirus type 5, whole as in the capsid of the virion; HVR7 segment changed; The whole virion was immobilised; source: 293 cells, virions purified by CsCl ultracentrifugation
B2: hexon of Ad5.0 (E1/E3-deleted Ad5 vector with wild-type Ad5 capsid), on the virion (natural protein, human adenovirus type 5)
chain: ATPSMMPQWSYMHISGQDASEYLSPGLVQFARATETYFSLNNKFRNPTVAPTHDVTTDRSQRLTLRFIPVDREDTAYSYKARFTLAVGDNRVLDMASTYFDIRGVLDRGPTFKPYSGTAYNALAPKGAPNPCEWDEAATALEINLEEEDDDNEDEVDEQAEQQKTHVFGQAPYSGINITKEGIQIGVEGQTPKYADKTFQPEPQIGESQWYETEINHAAGRVLKKTTPMKPCYGSYAKPTNENGGQGILVKQQNGKLESQVEMQFFSTTEATAGNGDNLTPKVVLYSEDVDIETPDTHISYMPTIKEGNSRELMGQQSMPNRPNYIAFRDNFIGLMYYNSTGNMGVLAGQASQLNAVVDLQDRNTELSYQLLLDSIGDRTRYFSMWNQAVDSYDPDVRIIENHGTEDELPNYCFPLGGVINTETLTKVKPKTGQENGWEKDATEFSDKNEIRVGNNFAMEINLNANLWRNFLYSNIALYLPDKLKYSPSNVKISDNPNTYDYMNKRVVAPGLVDCYINLGARWSLDYMDNVNPFNHHRNAGLRYRSMLLGNGRYVPFHIQVPQKFFAIKNLLLLPGSYTYEWNFRKDVNMVLQSSLGNDLRVDGASIKFDSICLYATFFPMAHNTASTLEAMLRNDTNDQSFNDYLSAANMLYPIPANATNVPISIPSRNWAAFRGWAFTRLKTKETPSLGSGYDPYYTYSGSIPYLDGTFYLNHTFKKVAITFDSSVSWPGNDRLLTPNEFEIKRSVDGEGYNVAQCNMTKDWFLVQMLANYNIGYQGFYIPESYKDRMYSFFRNFQPMSRQVVDDTKYKDYQQVGILHQHNNSGFVGYLAPTMREGQAYPANFPYPLIGKTAVDSITQKKFLCDRTLWRIPFSSNFMSMGALTDLGQNLLYANSAHALDMTFEVDPMDEPTLLYVLFEVFDVVRVHRPHRGVIETVYLRTPFSAGNATT
notes: hexon of human adenovirus type 5, whole as in the capsid of the virion; HVR7 segment VINTETL; The whole virion was immobilised; The other capsid proteins are not written; also called VINTETL; source: 293 cells, virions purified by CsCl ultracentrifugation
B3: hexon of Ad5.4 (Ad5 vector, hexon HVR7 VINTATL), on the virion (natural protein, human adenovirus type 5)
chain: ATPSMMPQWSYMHISGQDASEYLSPGLVQFARATETYFSLNNKFRNPTVAPTHDVTTDRSQRLTLRFIPVDREDTAYSYKARFTLAVGDNRVLDMASTYFDIRGVLDRGPTFKPYSGTAYNALAPKGAPNPCEWDEAATALEINLEEEDDDNEDEVDEQAEQQKTHVFGQAPYSGINITKEGIQIGVEGQTPKYADKTFQPEPQIGESQWYETEINHAAGRVLKKTTPMKPCYGSYAKPTNENGGQGILVKQQNGKLESQVEMQFFSTTEATAGNGDNLTPKVVLYSEDVDIETPDTHISYMPTIKEGNSRELMGQQSMPNRPNYIAFRDNFIGLMYYNSTGNMGVLAGQASQLNAVVDLQDRNTELSYQLLLDSIGDRTRYFSMWNQAVDSYDPDVRIIENHGTEDELPNYCFPLGGVINTATLTKVKPKTGQENGWEKDATEFSDKNEIRVGNNFAMEINLNANLWRNFLYSNIALYLPDKLKYSPSNVKISDNPNTYDYMNKRVVAPGLVDCYINLGARWSLDYMDNVNPFNHHRNAGLRYRSMLLGNGRYVPFHIQVPQKFFAIKNLLLLPGSYTYEWNFRKDVNMVLQSSLGNDLRVDGASIKFDSICLYATFFPMAHNTASTLEAMLRNDTNDQSFNDYLSAANMLYPIPANATNVPISIPSRNWAAFRGWAFTRLKTKETPSLGSGYDPYYTYSGSIPYLDGTFYLNHTFKKVAITFDSSVSWPGNDRLLTPNEFEIKRSVDGEGYNVAQCNMTKDWFLVQMLANYNIGYQGFYIPESYKDRMYSFFRNFQPMSRQVVDDTKYKDYQQVGILHQHNNSGFVGYLAPTMREGQAYPANFPYPLIGKTAVDSITQKKFLCDRTLWRIPFSSNFMSMGALTDLGQNLLYANSAHALDMTFEVDPMDEPTLLYVLFEVFDVVRVHRPHRGVIETVYLRTPFSAGNATT
notes: as for B1

Common to all, as to experiment: SPR; Biacore T200; about 300 to 5,000 RU of Ad virions immobilised on a CM5 chip, coagulation factors flowed over at four concentrations, 50 uL/min; 10 mM HEPES, 150 mM NaCl, 1 mM CaCl2, 0.5 mM MgCl2, 0.1% BSA, 0.05% polysorbate 20, pH 7.4; global fit to a 1:1 kinetic interaction model, double referencing
What all share (conditions): both partners purified
On the technique in general: Surface plasmon resonance follows binding to a sensor surface in real time, without labels.

Experiment [1] deals with T1, human prothrombin (coagulation factor II) (human, UniProt P00734 44-622, γ-carboxylated glutamate residues in the Gla domain (positions not given)).
T1 construct: prothrombin (FII), human, plasma-derived; also called Human FII; FII; source: bought: Haematologic Technologies, Inc. (HCP-0010), plasma-derived; dialyzed

Experiment [2] addresses T2, hexon of Ad5.5 (Ad5 vector, hexon HVR7 VINTDTL), on the virion (human adenovirus type 5, UniProt P04133 2-952, VINTETL to VINTDTL (HVR7; position worked out from the printed T425A)).
T2 construct: hexon of human adenovirus type 5, whole as in the capsid of the virion; HVR7 segment changed; The whole virion was immobilised; source: 293 cells, virions purified by CsCl ultracentrifugation

In experiment [3] the target is B1.
For experiment [4], the target named is B2.
Experiment [5] concerns the target B3.

From paper PMC9536601, “Binding of adenovirus species C hexon to prothrombin and the influence of hexon on vector properties in vitro and in vivo” (PLoS Pathogens, 2022) come the findings set out here.

Usually Kd stands for the equilibrium constant for the complex coming apart. Low readings indicate tighter binding, high ones weaker binding. B1 came in with a dissociation constant (Kd) in experiment [1] of 130 nM.
For B2, the Kd in experiment [1] stood at 35 nM.
For B3, the affinity in experiment [1], expressed as Kd, was 266 nM. This Kd is about 7.6-fold higher than that of the molecule before.

B4: mouse coagulation factor X (natural protein, UniProt O88947 41-481, looked up)
chain: ANSFFEEFKKGNLERECMEEICSYEEVREIFEDDEKTKEYWTKYKDGDQCESSPCQNQGACRDGIGGYTCTCSEGFEGKNCELFVRKLCRLDNGDCDQFCREEQNSVVCSCASGYFLGNDGKSCISTAPFPCGKITTGRRKRSVALNTSDSELDLEDALLDEDFLSPTENPIELLNLNETQPERSSDDLVRIVGGRECKDGECPWQALLINEDNEGFCGGTILNEFYILTAAHCLHQARRFKVRVGDRNTEKEEGNEMVHEVDVVIKHNKFQRDTYDYDIAVLRLKTPITFRMNVAPACLPQKDWAESTLMTQKTGIVSGFGRTHEKGRQSNILKMLEVPYVDRNTCKLSTSFSITQNMFCAGYEAKLEDACQGDSGGPHVTRFKNTYYVTGIVSWGEGCARKGKYGIYTKVTTFLKWIDRSMKARVGPTAETPRTAGPPN
modifications: γ-carboxylated glutamate residues in the Gla domain (positions not given)
notes: coagulation factor X, mouse, plasma-derived; also called Mouse FX; source: bought: Haematologic Technologies, Inc. (MCX-5050), plasma-derived; pretreated with GGACK, dialyzed
Turning to B4, the dissociation constant (Kd) turned out to be 2.5 nM in experiment [2], 0.37 nM in experiment [3], 0.32 nM in experiment [4] and 1.9 nM in experiment [5].

B5: bovine coagulation factor X (natural protein, UniProt P00743 41-492, looked up)
chain: ANSFLEEVKQGNLERECLEEACSLEEAREVFEDAEQTDEFWSKYKDGDQCEGHPCLNQGHCKDGIGDYTCTCAEGFEGKNCEFSTREICSLDNGGCDQFCREERSEVRCSCAHGYVLGDDSKSCVSTERFPCGKFTQGRSRRWAIHTSEDALDASELEHYDPADLSPTESSLDLLGLNRTEPSAGEDGSQVVRIVGGRDCAEGECPWQALLVNEENEGFCGGTILNEFYVLTAAHCLHQAKRFTVRVGDRNTEQEEGNEMAHEVEMTVKHSRFVKETYDFDIAVLRLKTPIRFRRNVAPACLPEKDWAEATLMTQKTGIVSGFGRTHEKGRLSSTLKMLEVPYVDRSTCKLSSSFTITPNMFCAGYDTQPEDACQGDSGGPHVTRFKDTYFVTGIVSWGEGCARKGKFGVYTKVSNFLKWIDKIMKARAGAAGSRGHSEAPATWTVPPPLPL
modifications: γ-carboxylated glutamate residues in the Gla domain (positions not given)
notes: coagulation factor X, bovine, plasma-derived; also called Bovine FX; source: bought: Haematologic Technologies, Inc. (BCX-1050), plasma-derived; pretreated with GGACK, dialyzed
As to B5, the dissociation constant (Kd) amounted to 438 nM in experiment [2], 1620 nM in experiment [3], 270 nM in experiment [4] and 540 nM in experiment [5].

B6: mouse prothrombin (coagulation factor II) (natural protein)
chain: not shown
modifications: γ-carboxylated glutamate residues in the Gla domain (positions not given)
notes: prothrombin (FII), mouse, plasma-derived; also called Mouse FII; source: dialyzed
Regarding B6, the Kd in experiment [2] was found to be 216 nM; in experiment [3], 420 nM; in experiment [4], 2000 nM; in experiment [5], 36000 nM.
